Results as given in the supplement of paper PMC9170038.

test system: MS2 coat protein; experiment: apparent KD of MS2 coat protein, switch ON state; designed switch direction (-1 OFF switch, 1 ON switch): 1; higher = weaker reporter binding; conditions: FMN input: 0 or 200 uM; Eterna round: R93 (includes R88 designs)
Procedure, shortened: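 In 100 mM Tris-HCl pH 7.5 with 80 mM KCl and 4 mM MgCl2, and without or with constant ligand, SNAP-549-labelled MS2 coat protein was titrated in twofold steps from 0.7 or 1.5 nM to 3 µM. Per-step times went from 0.8–1.5 h down to 10–20 min. The RNA switches were transcribed on-chip from Illumina sequencing clusters, and apparent KD is the per-design median of normalised cluster binding-curve fits.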

Row | Sequence | apparent KD of MS2 coat protein
1 | AAAGAAAAACUAGAGGAUAUCUGAGUGGUAACAUGAGGAUCACCCAUGUGAAGAAAGGAGCAUGAGGAGAAGGCUAGAAGAAAAA [JL Nando mod 22] | 11.7 nM
2 | UGGAAACAUGAGGAUCACCCAUGUAAAAGGUGGUUAGGAUAUGCAAAACGGAAAACGAAAGCAGAAGGGACAAAAA [Inspired by JR and Meechl] | 130 nM
3 | UAGCAGUGCGGGUAGGAUAUGUAGGGUGGUACAUGAGGAUCACCCAUGUAUCCACCCUUCGACCGGCAGAAGGGCCUGUCACUGC [Edor] | 17.9 nM
4 | AAAUAAAUGACUCAGGAUAUAUCAUAGAAAACAUGAGGAUCACCCAUGUAAUAAUAACAUGUUUGGUAGAAGGGAGUCAAUAAAU [LROPPY Same State 2 - v04_deltaG=1.25] | 31.1 nM
5 | AUAUAUAUAAGGAAGGAUAUCUUAGAAAAAACAUGAGGAUCACCCAUGUAAAUAAAGAAUAAAUGGGAGAAGGUCCAUAUAUAUA [77%, More Tesla, 10] | 15.1 nM
6 | UCGUCCUCGUGCUAGGAUAUCCAUCGUAAAACAUGAGGAUCACCCAUGUAGAAAUGCGCCUACGAGGAGAAGGAGCGAUGUGGAU [Velemageer] | 14.9 nM
7 | GAGGACAUAGUACAGGAUAUAUGAAUAGUCACAUGAGGAUCACCCAUGUGCAUUUAUAUGCGCACAUAGAAGGGUGGUAGUUAUC [SameState2 Malc#28] | 155 nM
8 | GAGGACAUAGUACAGGAUAUAUGAAUAGUCACAUGAGGAUCACCCAUGUCCAUUUAUAUGGGCACAUAGAAGGGUGGUAGUUAUC [SameState2 Malc#27] | 24.6 nM
9 | AACUAACAUGAGGAUCACCCAUGUAAUCAAACAUGAGGAUAUAUAACACAUCAUCAACAGAUAGAAGGCAUAAAUA [JR_SS001_Sub1203] | 80.4 nM
10 | AAUAUACAUGAGGAUCACCCAUGUUUUAAUAGCUGAGGAUAUACGGGUGAAAACAGCAUAGUAGAAGGCGGGUGUA [SameState1 Malc#8] | 99.6 nM
11 | AAAUAAAUGACUAAGGAUAUAUCAUAAGAAACAUGAGGAUCACCCAUGUAAUAAUAAAAAGGGUGAUAGAAGGUAGUCAACAAAC [74%, More Paria 4] | 19.8 nM
12 | AAAAAAAAAACGCAGGAUAUCCAAAAAAAAACAUGAGGAUCACCCAUGUAAAAAAAAAAAAAAUGGGAGAAGGGUGAAAAAAAAAA [Louisiana 6 - Jieux - Same State 2] | 49.9 nM
13 | AAAGACGUGCAUCAGGAUAUGUUCCGAGACACAUGAGGAUCACCCAUGUGGACGAAGUCUCGGGCACAGAAGGGAUCACUCAUAA [Latibe] | 15.4 nM
14 | AGAAAUAAAACACAGGAUAUCCAAAAUAAAACAUGAGGAUCACCCAUGUAAAGAAAAGAAAAAUGGGAGAAGGGUGAAAAUAAGA [Mat - Same State 2 - JL mod - D19] | 19.4 nM
15 | UGUCCACAUGAGGAUCACCCAUGUCAGGAGGUGACAGGAUAUUGCGAAAAAAAAAAAAAGCAAGAAGGGUCUGAUU [SameState1-cac1] | 36.4 nM
16 | GAGAGGAAGAGAGAGGAUAUCCAAAGGAAAACAUGAGGAUCACCCAUGUAAAAGGUAGGAAAUUGGGAGAAGGCUCAAGAGAGAG [salish99-ss2-063] | 29.1 nM
17 | AUAAUAAGAAGCUAGGAUAUGCUAAAGUAAACAUGAGGAUCACCCAUGUAAAGAAAAAAACUCAUGUAGAAGGAGCAGAAAUAAA [moonwalk 6] | 99.1 nM
18 | AAAAAACAUGAGGAUCACCCAUGUAAUACAACAUCAGGAUAUUGAUUUUACUAUGUAUUGCAAGAAGGGAUGAAAA [Same State 1.3a (Same State 1 - Omei 2 )] | 71.2 nM
19 | AUAAAACAUGAGGAUCACCCAUGUAGAAAUAUGGGAGGAUAUACUAGAUCGAAAGAUCUAGUAGAAGGCCUUUAUA [JL Mod of Eli 6] | 19.9 nM
20 | AGAAAUAAAAGAGAGGAUAUUCAAAAAGGGACAUGAGGAUCACCCAUGUAAAAGAAAAUAAAAUGGGAGAAGGCUCUAAAUAAAG [80%, More Helter Skelter 2] | 86.6 nM
21 | AAGAAACAUGAGGAUCACCCAUGUAAGAUUAUGGGAGGAUAUGCGAAAAGAAACAAAGAAGCAGAAGGCCUAAGAA [75%, Ex5 sub 1, 4] | 15.7 nM

Row | Sequence | apparent KD of MS2 coat protein
22 | AAUGAACAUGAGGAUCACCCAUGUUCUAAUAGUUGAGGAUAUAUGGGUGAAAAUAGCACAGUAGAAGGCGAGUGUA [SameState1 Malc#17] | 408 nM
23 | GGGAGACAUGAGGAUCACCCAUGUGAGAAGAGGCGAGGAUAUCGAAAGAAAGAAGAGAAACGAGAAGGCGCGAGCC [salish99-SS1-064] | 94.2 nM
24 | AAAAAACAUGAGGAUCACCCAUGUAAAAAAAUCGCAGGAUAUACGGUCGCGAAAGCGACCGUAGAAGGGCGAUCCU [Louisiana 3 - Jieux - Same State 1] | 59.1 nM
25 | AGCGAACAUGAGGAUCACCCAUGUGAAAAACAUAGAGGAUAUGUCGCAUGAGUGUAAAAGACAGAAGGCUAUCGCA [Mod of Nando] | 38.8 nM
26 | AAAAACGUGGCGUAGGAUAUACUAAUAUUCACAUGAGGAUCACCCAUGUUCAUAUAUAUGAACGAGUAGAAGGACGACGAAAAAA [Mat - Same state - Malcolm Mod - D106] | 29.5 nM
27 | AGGAAACAUGAGGAUCACCCAUGUAAAAAAUGGGUAGGAUAUGCGAAAAGAAAAAGAAAAGCAGAAGGGCCAAGAA [62%, Something completely different, 3] | 46 nM
28 | AGAAAUAAAGCGAAGGAUAUCCAAACCUAAACAUGAGGAUCACCCAUGUAAAAGAAAAUAAAAUGGGAGAAGGUCGCAAAUAAGA [Designing denovo 14] | 13.5 nM
29 | GGGAGACAUGAGGAUCACCCAUGUAGAAGGAUGGGAGGAUAUACAAAGACGAGAGUCAGAGUAGAAGGCCUAGGAA [salish99-ss1-189-4KCAL] | 29 nM
30 | AUAAAACAUGAGGAUCACCCAUGUAGAAAUAUGGGAGGAUAUACGAGGACGAAAGUCAAAGUAGAAGGCCUAAAAG [Mat - Same State 1 - Meechl mod - D120] | 22.7 nM
31 | AGAAUAAAAAGACAGGAUAUCCAAAAAAAAACAUGAGGAUCACCCAUGUAAAAAAAAUAAAAAUGGGAGAAGGGUCAAAAUAAGA [Mat - Same State 2 - JL mod - D64] | 19.9 nM
32 | AACAAUCUAUCUGAGGAUAUCAUGACAAAGACAUGAGGAUCACCCAUGUACCAGGAAACUGGUUAUGAGAAGGCAGAUAGAUUGA [SS2: 1117] | 11.5 nM
33 | CUUUCCGCGCUAUAGGAUAUGAAUGAACCUACAUGAGGAUCACCCAUGUCGAACUCGGUCCAAAAUCAGAAGGAUGGCGAGGCGC [Oratis] | 119 nM
34 | GAGAGACAUGAGGAUCACCCAUGUAGGAUUAUGGGAGGAUAUACAAAGACGAGAGUCAGAGUAGAAGGCCUAGGAA [salish99-ss1-137(!)] | 24.2 nM
35 | AAAUAAAUGACUCAGGAUAUAUCAUAGGGUACAUGAGGAUCACCCAUGUUUUAAUAACAUGUUUGGUAGAAGGGAGUCAAUAAAU [LROPPY Same State 2 - v07_deltaG=1.69] | 85.1 nM
36 | AUAAAACAUGAGGAUCACCCAUGUAGAAAUAUGGGAGGAUAUACUAGAUCGAAAGAUCUAGUAGAAGGCCUUUAAG [JL Mod of Eli 4] | 29.6 nM
37 | AAAAGACAUGAGGAUCACCCAUGUGAAAACGUAGGAGGAUAUGUCUGGAAACCAGACUGGACAGAAGGCCUGUGUC [SS1 - 32] | 26.7 nM
38 | GAAAAACAUGAGGAUCACCCAUGUAAGAUAAACACAGGAUAUGCGAAAAUAAAUAAAGAAGCAGAAGGGUGAAGAA [Mat - Same State 1 - Tesla mod - 73] | 11.1 nM
39 | AAAAAAAAAAGACAGGAUAUCCAAAAAAAAACAUGAGGAUCACCCAUGUAAAAAAAAAAAAAGUGGGAGAAGGGUCAAAAAAAAAA [Louisiana 4 - Jieux - Same State 2] | 24.9 nM
40 | AUUACAUAUAGUUAGGAUAUCAUAUGUAAGACAUGAGGAUCACCCAUGUCCUAAGAAUAGGUAAAUGAGAAGGAACAGUGAGUAU [JR_SS002_Sub419] | 17.1 nM
41 | AAAACACAUGAGGAUCACCCAUGUGCAAAAUUCGCAGGAUAUUCCUCAAUUAAAUGAAAGGAAGAAGGGUGAUAAA [Nob's Hobby 32 - Jieux - Same State 1] | 17.8 nM
42 | AAAAAAGAUCUAGAGGAUAUCCGAGUGGUAACAUGAGGAUCACCCAUGUGAAGAAAGGAACAUGAGGAGAAGGCUAGAUCAAAAA [JL Nando Mod 1] | 7.87 nM
